Legend:
Experiment in all cases: holdup assay
Parameters in all cases: key: below the threshold = too weak to quantify, mostly under pKd 3.1 to 4
Details in all cases: plain residues with an end cap or a label only (N-terminal biotin on a linker: ado-ado)
RADIL, Q96JH8 = molecular target: T1, RADIL, Q96JH8
T1 sequence (Q96JH8 971-1071, limits assumed, looked up): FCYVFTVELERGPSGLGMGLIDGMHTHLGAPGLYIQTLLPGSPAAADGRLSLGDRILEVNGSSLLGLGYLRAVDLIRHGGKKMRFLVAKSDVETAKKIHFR

PDZRN4_1, Q6ZMN7 = molecular target: PDZRN4_1, Q6ZMN7
PDZRN4_1, Q6ZMN7, sequence (Q6ZMN7 213-318): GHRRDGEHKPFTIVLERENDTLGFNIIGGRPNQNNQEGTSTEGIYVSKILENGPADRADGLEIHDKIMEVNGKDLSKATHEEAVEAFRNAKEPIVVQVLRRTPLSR

MAGI1_2, Q96QZ7 = molecular target: MAGI1_2, Q96QZ7
MAGI1_2, Q96QZ7, sequence (Q96QZ7 456-580): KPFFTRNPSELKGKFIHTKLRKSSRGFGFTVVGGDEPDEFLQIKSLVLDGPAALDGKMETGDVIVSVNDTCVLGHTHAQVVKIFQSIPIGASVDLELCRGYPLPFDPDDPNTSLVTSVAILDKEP

LNX1_2, Q8TBB1 = molecular target: LNX1_2, Q8TBB1
LNX1_2, Q8TBB1, sequence (Q8TBB1 371-470): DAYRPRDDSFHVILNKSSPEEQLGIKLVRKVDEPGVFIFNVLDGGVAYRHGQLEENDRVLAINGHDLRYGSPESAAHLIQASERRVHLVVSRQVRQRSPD

GRIP2_7, Q9C0E4 = molecular target: GRIP2_7, Q9C0E4
GRIP2_7, Q9C0E4, sequence (Q9C0E4 934-1023): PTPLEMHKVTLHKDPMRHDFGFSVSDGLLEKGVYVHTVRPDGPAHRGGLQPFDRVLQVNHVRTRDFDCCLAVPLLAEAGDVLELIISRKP

DLG4_3, P78352 = molecular target: DLG4_3, P78352
DLG4_3, P78352, sequence (P78352 306-403): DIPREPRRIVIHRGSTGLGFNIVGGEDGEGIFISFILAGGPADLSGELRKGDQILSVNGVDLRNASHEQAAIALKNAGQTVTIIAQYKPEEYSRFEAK

PICK1, Q9NRD5 = molecular target: PICK1, Q9NRD5
PICK1, Q9NRD5, sequence (Q9NRD5 17-115): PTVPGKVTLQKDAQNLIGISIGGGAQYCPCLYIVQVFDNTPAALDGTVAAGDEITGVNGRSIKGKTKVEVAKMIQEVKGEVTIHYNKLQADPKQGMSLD

GRIP2_4, Q9C0E4 = molecular target: GRIP2_4, Q9C0E4
GRIP2_4, Q9C0E4, sequence (Q9C0E4 446-548): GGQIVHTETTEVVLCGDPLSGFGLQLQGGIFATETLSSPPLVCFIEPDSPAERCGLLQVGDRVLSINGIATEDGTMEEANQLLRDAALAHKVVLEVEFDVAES

MAGI2_6, Q86UL8 = molecular target: MAGI2_6, Q86UL8
MAGI2_6, Q86UL8, sequence (Q86UL8 1141-1229): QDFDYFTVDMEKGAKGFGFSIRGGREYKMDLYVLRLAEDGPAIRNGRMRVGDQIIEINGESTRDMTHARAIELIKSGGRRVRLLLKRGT

DLG5_1, Q8TDM6 = molecular target: DLG5_1, Q8TDM6
DLG5_1, Q8TDM6, sequence (Q8TDM6 617-713): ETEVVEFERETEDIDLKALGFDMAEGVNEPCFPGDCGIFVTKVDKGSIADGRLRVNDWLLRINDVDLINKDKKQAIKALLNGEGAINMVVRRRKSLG

MAGI1_1, Q96QZ7 = molecular target: MAGI1_1, Q96QZ7
MAGI1_1, Q96QZ7, sequence (Q96QZ7 1-106): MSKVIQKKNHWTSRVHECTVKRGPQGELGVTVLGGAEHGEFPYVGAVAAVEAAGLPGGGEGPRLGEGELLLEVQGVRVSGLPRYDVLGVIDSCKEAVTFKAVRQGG

GRIP1_3, Q9Y3R0 = molecular target: T2, GRIP1_3, Q9Y3R0
T2 sequence (Q9Y3R0 247-346, limits assumed, looked up): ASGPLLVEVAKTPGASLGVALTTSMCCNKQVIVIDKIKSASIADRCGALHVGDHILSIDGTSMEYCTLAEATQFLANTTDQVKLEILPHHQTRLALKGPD

LNX1_3, Q8TBB1 = molecular target: LNX1_3, Q8TBB1
LNX1_3, Q8TBB1, sequence (Q8TBB1 500-596): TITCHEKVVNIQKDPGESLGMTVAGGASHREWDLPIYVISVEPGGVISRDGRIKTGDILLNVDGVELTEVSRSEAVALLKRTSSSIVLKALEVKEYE

MAGI2_5, Q86UL8 = molecular target: MAGI2_5, Q86UL8
MAGI2_5, Q86UL8, sequence (Q86UL8 915-1017): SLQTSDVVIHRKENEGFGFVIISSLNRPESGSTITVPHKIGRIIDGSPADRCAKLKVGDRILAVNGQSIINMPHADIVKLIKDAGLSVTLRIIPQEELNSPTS

APBA3_1, O96018 = molecular target: T3, APBA3_1, O96018
T3 sequence (O96018 389-490, limits assumed, looked up): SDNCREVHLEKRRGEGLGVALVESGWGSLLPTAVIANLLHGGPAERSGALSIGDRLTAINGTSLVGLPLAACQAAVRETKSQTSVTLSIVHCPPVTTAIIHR

PDZRN3_1, Q9UPQ7 = molecular target: T4, PDZRN3_1, Q9UPQ7
T4 sequence (Q9UPQ7 244-349, limits assumed, looked up): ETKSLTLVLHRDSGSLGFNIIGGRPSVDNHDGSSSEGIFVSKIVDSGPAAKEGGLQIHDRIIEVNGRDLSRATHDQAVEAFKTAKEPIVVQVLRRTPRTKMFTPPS

LNX1_1, Q8TBB1 = molecular target: LNX1_1, Q8TBB1
LNX1_1, Q8TBB1, sequence (Q8TBB1 261-371): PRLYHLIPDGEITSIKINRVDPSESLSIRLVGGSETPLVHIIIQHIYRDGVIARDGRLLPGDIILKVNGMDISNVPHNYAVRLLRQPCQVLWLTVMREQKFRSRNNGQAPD

SNX27, Q96L92 = molecular target: SNX27, Q96L92
GRIP1_5, Q9Y3R0 = molecular target: T5, GRIP1_5, Q9Y3R0
T5 sequence (Q9Y3R0 568-668, limits assumed, looked up): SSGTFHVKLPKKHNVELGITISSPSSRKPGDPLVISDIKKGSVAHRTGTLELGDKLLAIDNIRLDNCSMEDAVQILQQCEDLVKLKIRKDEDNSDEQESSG

IL16_4, Q14005 = molecular target: IL16_4, Q14005
IL16_4, Q14005, sequence (Q14005 1229-1329): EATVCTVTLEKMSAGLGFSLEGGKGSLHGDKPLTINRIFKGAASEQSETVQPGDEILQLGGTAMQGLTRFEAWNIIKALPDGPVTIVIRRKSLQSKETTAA

FRMPD4, Q14CM0 = molecular target: FRMPD4, Q14CM0
FRMPD4, Q14CM0, sequence (Q14CM0 67-160): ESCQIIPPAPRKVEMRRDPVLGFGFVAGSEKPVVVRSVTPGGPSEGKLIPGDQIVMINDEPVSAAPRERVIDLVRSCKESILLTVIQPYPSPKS

SNTB1, Q13884 = molecular target: T6, SNTB1, Q13884
T6 sequence (Q13884 107-205, limits assumed, looked up): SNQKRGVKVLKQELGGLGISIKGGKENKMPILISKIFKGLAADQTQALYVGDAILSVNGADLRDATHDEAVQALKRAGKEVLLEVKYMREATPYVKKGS

TX1BP3, O14907 = molecular target: T7, TX1BP3, O14907
T7 sequence (O14907 10-122, limits assumed, looked up): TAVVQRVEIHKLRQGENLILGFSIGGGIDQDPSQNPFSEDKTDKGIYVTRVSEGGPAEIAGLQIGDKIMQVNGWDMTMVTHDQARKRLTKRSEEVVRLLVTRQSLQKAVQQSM

Inadl_6, Q8NI35 = molecular target: Inadl_6, Q8NI35
Inadl_6, Q8NI35, sequence (Q8NI35 1058-1167): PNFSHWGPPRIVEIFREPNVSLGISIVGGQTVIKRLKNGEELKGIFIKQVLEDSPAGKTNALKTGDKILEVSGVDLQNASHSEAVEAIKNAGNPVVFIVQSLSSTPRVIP

DFNB31_1, Q9P202 = molecular target: T8, DFNB31_1, Q9P202
T8 sequence (Q9P202 135-233, limits assumed, looked up): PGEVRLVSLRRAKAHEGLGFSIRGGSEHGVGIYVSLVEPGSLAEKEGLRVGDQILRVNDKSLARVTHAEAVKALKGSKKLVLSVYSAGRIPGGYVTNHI

GIPC2, Q8TF65 = molecular target: GIPC2, Q8TF65
GIPC2, Q8TF65, sequence (Q8TF65 112-203): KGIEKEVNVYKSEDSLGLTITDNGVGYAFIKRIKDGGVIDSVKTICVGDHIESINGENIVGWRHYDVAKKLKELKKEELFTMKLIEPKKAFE

Inadl_1, Q8NI35 = molecular target: Inadl_1, Q8NI35
Inadl_1, Q8NI35, sequence (Q8NI35 113-229): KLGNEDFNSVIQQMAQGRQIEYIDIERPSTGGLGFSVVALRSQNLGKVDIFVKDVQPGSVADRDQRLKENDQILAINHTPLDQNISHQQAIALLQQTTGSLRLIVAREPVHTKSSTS

SCRIB_3, Q14160 = molecular target: SCRIB_3, Q14160
SCRIB_3, Q14160, sequence (Q14160 999-1103): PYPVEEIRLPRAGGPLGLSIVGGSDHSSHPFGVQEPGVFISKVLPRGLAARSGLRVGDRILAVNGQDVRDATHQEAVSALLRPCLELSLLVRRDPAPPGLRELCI

GORASP1, Q9BQQ3 = molecular target: GORASP1, Q9BQQ3
GORASP1, Q9BQQ3, sequence (Q9BQQ3 1-208): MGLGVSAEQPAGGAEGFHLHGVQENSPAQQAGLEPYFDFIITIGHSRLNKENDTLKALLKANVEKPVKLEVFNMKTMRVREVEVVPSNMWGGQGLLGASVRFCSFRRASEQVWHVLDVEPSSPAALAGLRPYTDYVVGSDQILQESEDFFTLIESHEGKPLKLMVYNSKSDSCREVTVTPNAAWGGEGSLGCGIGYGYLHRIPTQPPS

Row | Binder | pKd (RADIL, Q96JH8) | pKd (PDZRN4_1, Q6ZMN7) | pKd (MAGI1_2, Q96QZ7) | pKd (LNX1_2, Q8TBB1) | pKd (GRIP2_7, Q9C0E4) | pKd (DLG4_3, P78352) | pKd (PICK1, Q9NRD5) | pKd (GRIP2_4, Q9C0E4) | pKd (MAGI2_6, Q86UL8) | pKd (DLG5_1, Q8TDM6) | pKd (MAGI1_1, Q96QZ7) | pKd (GRIP1_3, Q9Y3R0) | pKd (LNX1_3, Q8TBB1) | pKd (MAGI2_5, Q86UL8) | pKd (APBA3_1, O96018) | pKd (PDZRN3_1, Q9UPQ7) | pKd (LNX1_1, Q8TBB1) | pKd (SNX27, Q96L92) | pKd (GRIP1_5, Q9Y3R0) | pKd (IL16_4, Q14005) | also measured
1 | IKLETKKTKL [SLC15A2, Q16348] | below the threshold | 3.56 | 3.58 | below the threshold | below the threshold | below the threshold | below the threshold | below the threshold | below the threshold | 3.53 | below the threshold | below the threshold | below the threshold | 3.6 | below the threshold | below the threshold | 3.79 | 3.94 | below the threshold | 3.72 | pKd (FRMPD4, Q14CM0): below the threshold; pKd (SNTB1, Q13884): 3.71; pKd (TX1BP3, O14907): 4.02; pKd (Inadl_6, Q8NI35): below the threshold; pKd (DFNB31_1, Q9P202): 3.79; pKd (GIPC2, Q8TF65): below the threshold; pKd (Inadl_1, Q8NI35): below the threshold; pKd (SCRIB_3, Q14160): 3.77; pKd (GORASP1, Q9BQQ3): below the threshold
2 | NSTHNLKDYV [CLDN20, P56880] | 3.85 | below the threshold | below the threshold | below the threshold | below the threshold | below the threshold | below the threshold | below the threshold | below the threshold | below the threshold | below the threshold | below the threshold | below the threshold | below the threshold | below the threshold | 3.83 | below the threshold | below the threshold | below the threshold | 3.65 | pKd (FRMPD4, Q14CM0): below the threshold; pKd (SNTB1, Q13884): below the threshold; pKd (TX1BP3, O14907): below the threshold; pKd (Inadl_6, Q8NI35): below the threshold; pKd (DFNB31_1, Q9P202): below the threshold; pKd (GIPC2, Q8TF65): below the threshold; pKd (Inadl_1, Q8NI35): below the threshold; pKd (SCRIB_3, Q14160): below the threshold; pKd (GORASP1, Q9BQQ3): below the threshold
3 | DLLGGGSDSI [TNRC6B, Q9UPQ9] | below the threshold | below the threshold | below the threshold | below the threshold | below the threshold | below the threshold | below the threshold | below the threshold | below the threshold | below the threshold | below the threshold | below the threshold | below the threshold | below the threshold | below the threshold | below the threshold | 3.76 | below the threshold | below the threshold | 3.61 | pKd (FRMPD4, Q14CM0): 3.56; pKd (SNTB1, Q13884): below the threshold; pKd (TX1BP3, O14907): below the threshold; pKd (Inadl_6, Q8NI35): below the threshold; pKd (DFNB31_1, Q9P202): below the threshold; pKd (GIPC2, Q8TF65): 3.55; pKd (Inadl_1, Q8NI35): below the threshold; pKd (SCRIB_3, Q14160): below the threshold; pKd (GORASP1, Q9BQQ3): below the threshold
4 | GQNMTVSVVI [PRLHR, P49683] | 4.26 | below the threshold | below the threshold | 3.54 | below the threshold | below the threshold | below the threshold | below the threshold | below the threshold | 3.97 | 4.22 | below the threshold | below the threshold | below the threshold | below the threshold | below the threshold | 3.47 | 4.34 | below the threshold | 3.62 | pKd (FRMPD4, Q14CM0): below the threshold; pKd (SNTB1, Q13884): 4.15; pKd (TX1BP3, O14907): below the threshold; pKd (Inadl_6, Q8NI35): below the threshold; pKd (DFNB31_1, Q9P202): below the threshold; pKd (GIPC2, Q8TF65): below the threshold; pKd (Inadl_1, Q8NI35): below the threshold; pKd (SCRIB_3, Q14160): 3.66; pKd (GORASP1, Q9BQQ3): 4.28
5 | TKEIPNCTSV [SORCS3, Q9UPU3] | 4.05 | 3.94 | 3.94 | 3.78 | below the threshold | 3.71 | 4.17 | below the threshold | 4.43 | below the threshold | below the threshold | below the threshold | below the threshold | 3.99 | below the threshold | 3.92 | 3.75 | 5.16 | below the threshold | below the threshold | pKd (FRMPD4, Q14CM0): 3.65; pKd (SNTB1, Q13884): 4.25; pKd (TX1BP3, O14907): 4.47; pKd (Inadl_6, Q8NI35): below the threshold; pKd (DFNB31_1, Q9P202): 4.06; pKd (GIPC2, Q8TF65): 3.83; pKd (Inadl_1, Q8NI35): below the threshold; pKd (SCRIB_3, Q14160): 4.24; pKd (GORASP1, Q9BQQ3): below the threshold
